Patent US20160008398A1, “CONSTITUTIVE EXPRESSION OF COSTIMULATORY LIGANDS ON ADOPTIVELY TRANSFERRED T LYMPHOCYTES” (Memorial Sloan-Kettering Cancer Center, published 2016)

Target: CD28 (human, UniProt P10747)
Experiment: cell-based or functional assay

B1: CD80 (ligand)
chain: VIHVTKEVKEVATLSCGHNVSVEELAQTRIYWQKEKKMVLTMMSGDMNIWPEYKNRTIFDITNNLSIVILALRPSDEGTYECVVLKYEKDAFKREHLAEVTLSVKADFPTPSISDFEIPTSNIRRIICSTSGGFPEPHLSWLENGEELNAINTTVSQDPETELYAVSSKLDFNMTTNHSFMCLIKYGHLRVNQTFNWNTTKQEHFPDNLLPSWAITLISVNGIFVICCLTYCFAPRCRERRRNERLRRESVRPV
Granzyme B recruitment to T-cell tumor cell junctions: 2.2 fold
NF-kB-luciferase signal in single OKT3-stimulated Jurkat T cells: 3.8 fold
expansion of CAR-transduced T cells stimulated weekly on LNCaP tumor monolayers: ~2 fold
expansion of CMV pp65-specific T cells restimulated with HLA-A*0201^+ pp65-transduced Caco-2 cells: 209 fold
expansion of Pz1^+ T cells cocultured weekly with LNCaP tumor monolayers: 1040 fold enrichment
expansion of T cells stimulated weekly with plate-bound OKT3: 237 fold greater proliferation
in vivo expansion of Pz1^+ T cells in PC3-PSMA tumor bearing mice (bioluminescence): 41 fold higher photon count
